Results reported in paper PMC11806408.

Biological target: N‐10/C‐9 fusion PD (human)
Test: SPR; PDs of BMP‐9, BMP‐10 and N‐10/C‐9 fusion PD immobilised at 450 RUs on a CM5 chip by amine coupling; BMP‐10 GF 0 to 80 nM, 1:2 serial dilutions, 1× HBS‐EP; 1:1 model with mass transfer; apparent KD = kd/ka

B1: BMP‐10 GF (R&D Systems #2926‐BP‐025/CF) (ligand)
chain: NAKGNYCKRTPLYIDFKEIGWDSWIIAPPGYEAYECRGVCNYPLAEHLTPTKHAIIQALVHLKNSQKASKACCVPTKLEPISILYLDKGVVTYKFKYEGMAVSECGCR
B1 was tested, and the Kd was 13.2 nM, the koff was 0.0032 s⁻¹ and the kon was 220000 M⁻¹ s⁻¹.
